According to PMC9482650, “Quantitative fragmentomics allow affinity mapping of interactomes” (Nature Communications, 2022):

T1: ARHGEF11, O15085
T1 sequence (O15085 42-136, limits assumed, looked up): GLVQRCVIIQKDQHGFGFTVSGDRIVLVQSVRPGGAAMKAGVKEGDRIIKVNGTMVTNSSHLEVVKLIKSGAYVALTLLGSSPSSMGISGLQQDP

T2: MPP2, Q14168
T2 sequence (Q14168 180-250, limits assumed, looked up): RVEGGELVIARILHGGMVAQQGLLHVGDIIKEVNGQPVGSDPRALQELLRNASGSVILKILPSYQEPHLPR

T3: RADIL, Q96JH8
T3 sequence (Q96JH8 971-1071, limits assumed, looked up): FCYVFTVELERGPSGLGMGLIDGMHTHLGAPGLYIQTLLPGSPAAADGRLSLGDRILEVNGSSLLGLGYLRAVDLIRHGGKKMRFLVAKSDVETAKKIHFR

T4: LNX2_2, Q8N448
T4 sequence (Q8N448 334-432, limits assumed, looked up): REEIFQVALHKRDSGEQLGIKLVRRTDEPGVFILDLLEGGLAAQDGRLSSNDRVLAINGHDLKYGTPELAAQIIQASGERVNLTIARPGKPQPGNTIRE

T5: GRIP1_4, Q9Y3R0
T5 sequence (Q9Y3R0 467-571, limits assumed, looked up): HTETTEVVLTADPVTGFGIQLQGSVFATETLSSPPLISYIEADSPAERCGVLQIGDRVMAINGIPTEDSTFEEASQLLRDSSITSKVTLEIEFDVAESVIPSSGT

T6: LNX2_3, Q8N448
T6 sequence (Q8N448 463-564, limits assumed, looked up): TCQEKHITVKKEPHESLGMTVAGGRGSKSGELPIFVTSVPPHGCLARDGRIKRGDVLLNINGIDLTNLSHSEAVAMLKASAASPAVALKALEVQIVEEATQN

T7: DLG3_3, Q92796
T7 sequence (Q92796 374-475, limits assumed, looked up): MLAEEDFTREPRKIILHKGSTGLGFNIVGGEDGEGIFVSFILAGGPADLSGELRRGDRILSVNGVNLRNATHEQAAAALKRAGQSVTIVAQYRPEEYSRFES

T8: NHERF3_1, Q5T2W1
T8 sequence (Q5T2W1 4-100, limits assumed, looked up): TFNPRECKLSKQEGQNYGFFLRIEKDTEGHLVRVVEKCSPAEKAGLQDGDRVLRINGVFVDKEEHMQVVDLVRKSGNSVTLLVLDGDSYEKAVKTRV

T9: LIN7B, Q9HAP6
T9 sequence (Q9HAP6 88-185, limits assumed, looked up): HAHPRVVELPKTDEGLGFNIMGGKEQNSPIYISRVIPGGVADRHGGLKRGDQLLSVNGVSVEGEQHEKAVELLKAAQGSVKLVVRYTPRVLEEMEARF

T10: DVL3, Q92997
T10 sequence (Q92997 244-331, limits assumed, looked up): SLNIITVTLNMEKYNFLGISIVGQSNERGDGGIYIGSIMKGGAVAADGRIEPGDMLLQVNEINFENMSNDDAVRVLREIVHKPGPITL

T11: GRIP1_5, Q9Y3R0
T11 sequence (Q9Y3R0 568-668, limits assumed, looked up): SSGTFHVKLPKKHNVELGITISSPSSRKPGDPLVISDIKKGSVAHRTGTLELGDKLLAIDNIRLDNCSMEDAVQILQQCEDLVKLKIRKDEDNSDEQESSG

T12: TIAM2, Q8IVF5
T12 sequence (Q8IVF5 885-986, limits assumed, looked up): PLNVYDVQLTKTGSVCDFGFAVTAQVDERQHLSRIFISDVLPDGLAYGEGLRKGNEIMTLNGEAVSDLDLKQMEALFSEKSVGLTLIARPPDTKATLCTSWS

B1: CTNND2, Q9UQB3 (peptide)
chain: HYPASPDSWV

target: DLG1_2, Q12959; experiment: holdup assay; design: key: below the threshold = too weak to quantify, mostly under pKd 3.1 to 4; details: plain residues with an end cap or a label only (N-terminal biotin on a linker: ado-ado)
Sequence (Q12959 314-412): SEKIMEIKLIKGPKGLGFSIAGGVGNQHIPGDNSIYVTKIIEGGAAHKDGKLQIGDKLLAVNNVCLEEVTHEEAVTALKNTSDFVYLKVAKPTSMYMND

Binder	pKd
B1	4.65

target: MAGI2_2, Q86UL8; experiment: holdup assay; design: key: below the threshold = too weak to quantify, mostly under pKd 3.1 to 4; details: plain residues with an end cap or a label only (N-terminal biotin on a linker: ado-ado)
Sequence (Q86UL8 410-522): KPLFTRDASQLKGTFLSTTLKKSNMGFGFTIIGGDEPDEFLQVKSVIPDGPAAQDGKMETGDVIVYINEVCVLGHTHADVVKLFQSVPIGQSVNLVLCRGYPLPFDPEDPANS

Binder	pKd
B1	below the threshold

target: SNX27, Q96L92; experiment: holdup assay; design: key: below the threshold = too weak to quantify, mostly under pKd 3.1 to 4; details: plain residues with an end cap or a label only (N-terminal biotin on a linker: ado-ado)

Binder	pKd
B1	5.06

target: PARD3_3, Q8TEW0; experiment: holdup assay; design: key: below the threshold = too weak to quantify, mostly under pKd 3.1 to 4; details: plain residues with an end cap or a label only (N-terminal biotin on a linker: ado-ado)
Sequence (Q8TEW0 582-685): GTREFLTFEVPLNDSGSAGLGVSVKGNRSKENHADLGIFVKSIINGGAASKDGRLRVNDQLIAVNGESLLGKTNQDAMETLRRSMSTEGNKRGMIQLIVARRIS

Binder	pKd
B1	3.92

target: T1, ARHGEF11, O15085; experiment: holdup assay; design: key: below the threshold = too weak to quantify, mostly under pKd 3.1 to 4; details: plain residues with an end cap or a label only (N-terminal biotin on a linker: ado-ado)

Binder	pKd
B1	3.68

target: Inadl_2, Q8NI35; experiment: holdup assay; design: key: below the threshold = too weak to quantify, mostly under pKd 3.1 to 4; details: plain residues with an end cap or a label only (N-terminal biotin on a linker: ado-ado)
Sequence (Q8NI35 238-335): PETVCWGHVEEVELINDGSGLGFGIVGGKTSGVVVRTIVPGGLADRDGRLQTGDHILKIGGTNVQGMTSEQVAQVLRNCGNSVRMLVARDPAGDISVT

Binder	pKd
B1	below the threshold

target: T2, MPP2, Q14168; experiment: holdup assay; design: key: below the threshold = too weak to quantify, mostly under pKd 3.1 to 4; details: plain residues with an end cap or a label only (N-terminal biotin on a linker: ado-ado)

Binder	pKd
B1	below the threshold

target: GIPC2, Q8TF65; experiment: holdup assay; design: key: below the threshold = too weak to quantify, mostly under pKd 3.1 to 4; details: plain residues with an end cap or a label only (N-terminal biotin on a linker: ado-ado)
Sequence (Q8TF65 112-203): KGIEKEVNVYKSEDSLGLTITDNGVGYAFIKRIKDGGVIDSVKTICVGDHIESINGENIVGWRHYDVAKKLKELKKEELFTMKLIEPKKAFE

Binder	pKd
B1	3.61

target: T3, RADIL, Q96JH8; experiment: holdup assay; design: key: below the threshold = too weak to quantify, mostly under pKd 3.1 to 4; details: plain residues with an end cap or a label only (N-terminal biotin on a linker: ado-ado)

Binder	pKd
B1	5.02

target: LAP2, Q96RT1; experiment: holdup assay; design: key: below the threshold = too weak to quantify, mostly under pKd 3.1 to 4; details: plain residues with an end cap or a label only (N-terminal biotin on a linker: ado-ado)
Sequence (Q96RT1 other isoform, or with tags, fused parts or gaps): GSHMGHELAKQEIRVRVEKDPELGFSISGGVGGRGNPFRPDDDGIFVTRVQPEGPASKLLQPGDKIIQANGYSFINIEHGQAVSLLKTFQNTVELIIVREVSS

Binder	pKd
B1	5.58

target: T4, LNX2_2, Q8N448; experiment: holdup assay; design: key: below the threshold = too weak to quantify, mostly under pKd 3.1 to 4; details: plain residues with an end cap or a label only (N-terminal biotin on a linker: ado-ado)

Binder	pKd
B1	4.72

target: T5, GRIP1_4, Q9Y3R0; experiment: holdup assay; design: key: below the threshold = too weak to quantify, mostly under pKd 3.1 to 4; details: plain residues with an end cap or a label only (N-terminal biotin on a linker: ado-ado)

Binder	pKd
B1	below the threshold

target: T6, LNX2_3, Q8N448; experiment: holdup assay; design: key: below the threshold = too weak to quantify, mostly under pKd 3.1 to 4; details: plain residues with an end cap or a label only (N-terminal biotin on a linker: ado-ado)

Binder	pKd
B1	below the threshold

target: T7, DLG3_3, Q92796; experiment: holdup assay; design: key: below the threshold = too weak to quantify, mostly under pKd 3.1 to 4; details: plain residues with an end cap or a label only (N-terminal biotin on a linker: ado-ado)

Binder	pKd
B1	below the threshold

target: T8, NHERF3_1, Q5T2W1; experiment: holdup assay; design: key: below the threshold = too weak to quantify, mostly under pKd 3.1 to 4; details: plain residues with an end cap or a label only (N-terminal biotin on a linker: ado-ado)

Binder	pKd
B1	below the threshold

target: GRIP2_5, Q9C0E4; experiment: holdup assay; design: key: below the threshold = too weak to quantify, mostly under pKd 3.1 to 4; details: plain residues with an end cap or a label only (N-terminal biotin on a linker: ado-ado)
Sequence (Q9C0E4 544-642): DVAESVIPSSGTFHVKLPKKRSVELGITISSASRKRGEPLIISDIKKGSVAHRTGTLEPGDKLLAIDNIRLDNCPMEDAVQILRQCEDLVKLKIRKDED

Binder	pKd
B1	below the threshold

target: MAST2, Q6P0Q8; experiment: holdup assay; design: key: below the threshold = too weak to quantify, mostly under pKd 3.1 to 4; details: plain residues with an end cap or a label only (N-terminal biotin on a linker: ado-ado)
Sequence (Q6P0Q8 1099-1202): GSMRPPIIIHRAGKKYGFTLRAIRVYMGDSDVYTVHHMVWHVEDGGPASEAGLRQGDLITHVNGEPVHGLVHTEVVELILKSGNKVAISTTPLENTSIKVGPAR

Binder	pKd
B1	4.17

target: FRMPD4, Q14CM0; experiment: holdup assay; design: key: below the threshold = too weak to quantify, mostly under pKd 3.1 to 4; details: plain residues with an end cap or a label only (N-terminal biotin on a linker: ado-ado)
Sequence (Q14CM0 67-160): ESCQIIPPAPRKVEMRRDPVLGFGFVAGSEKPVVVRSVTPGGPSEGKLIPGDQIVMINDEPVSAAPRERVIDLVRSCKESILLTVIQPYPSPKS

Binder	pKd
B1	3.76

target: NOS1, P29475; experiment: holdup assay; design: key: below the threshold = too weak to quantify, mostly under pKd 3.1 to 4; details: plain residues with an end cap or a label only (N-terminal biotin on a linker: ado-ado)
Sequence (P29475 9-101): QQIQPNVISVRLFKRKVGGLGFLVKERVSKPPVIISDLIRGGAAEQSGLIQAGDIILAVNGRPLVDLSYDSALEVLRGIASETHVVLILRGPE

Binder	pKd
B1	3.86

target: T9, LIN7B, Q9HAP6; experiment: holdup assay; design: key: below the threshold = too weak to quantify, mostly under pKd 3.1 to 4; details: plain residues with an end cap or a label only (N-terminal biotin on a linker: ado-ado)

Binder	pKd
B1	below the threshold

target: IL16_3, Q14005; experiment: holdup assay; design: key: below the threshold = too weak to quantify, mostly under pKd 3.1 to 4; details: plain residues with an end cap or a label only (N-terminal biotin on a linker: ado-ado)
Sequence (Q14005 1107-1207): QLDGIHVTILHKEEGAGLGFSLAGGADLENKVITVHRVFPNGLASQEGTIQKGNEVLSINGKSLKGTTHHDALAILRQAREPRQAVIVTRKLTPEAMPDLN

Binder	pKd
B1	below the threshold

target: IL16_4, Q14005; experiment: holdup assay; design: key: below the threshold = too weak to quantify, mostly under pKd 3.1 to 4; details: plain residues with an end cap or a label only (N-terminal biotin on a linker: ado-ado)
Sequence (Q14005 1229-1329): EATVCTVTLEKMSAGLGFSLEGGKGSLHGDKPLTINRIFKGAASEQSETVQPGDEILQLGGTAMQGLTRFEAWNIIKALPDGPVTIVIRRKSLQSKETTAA

Binder	pKd
B1	3.67

target: T10, DVL3, Q92997; experiment: holdup assay; design: key: below the threshold = too weak to quantify, mostly under pKd 3.1 to 4; details: plain residues with an end cap or a label only (N-terminal biotin on a linker: ado-ado)

Binder	pKd
B1	4.04

target: T11, GRIP1_5, Q9Y3R0; experiment: holdup assay; design: key: below the threshold = too weak to quantify, mostly under pKd 3.1 to 4; details: plain residues with an end cap or a label only (N-terminal biotin on a linker: ado-ado)

Binder	pKd
B1	below the threshold

target: TJP2_1, Q9UDY2; experiment: holdup assay; design: key: below the threshold = too weak to quantify, mostly under pKd 3.1 to 4; details: plain residues with an end cap or a label only (N-terminal biotin on a linker: ado-ado)
Sequence (Q9UDY2 24-128): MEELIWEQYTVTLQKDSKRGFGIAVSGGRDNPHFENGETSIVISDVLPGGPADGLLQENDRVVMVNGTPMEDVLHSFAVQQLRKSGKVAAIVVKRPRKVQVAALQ

Binder	pKd
B1	4.37

target: T12, TIAM2, Q8IVF5; experiment: holdup assay; design: key: below the threshold = too weak to quantify, mostly under pKd 3.1 to 4; details: plain residues with an end cap or a label only (N-terminal biotin on a linker: ado-ado)

Binder	pKd
B1	below the threshold
